Earlier results as cited in patent publication US20210079079A1, “SYSTEMS AND METHODS FOR LOCAL MODULATION OF WNT SIGNALING” (Ortheus, Inc., priority 2018, published 2021).

Settings: in vivo; cited from earlier work

Substance: DKK1: a secreted protein that inhibits canonical Wnt signaling
- elimination half-life: less than 30 minutes
